According to PMC10397247:
Values belong to the binder of their own block, whether it stands above or below them.

Tests used:
[1] = biological target: T1, 4H584-bN; assay: two-hybrid library CCNG1;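 also: natural log of median RNA to DNA barcode read ratio; higher means stronger binding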
T1 chain: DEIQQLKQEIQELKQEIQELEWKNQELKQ

[2] = biological target: T2, 4H619-bN; assay: two-hybrid library CCNG1;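 also: natural log of median RNA to DNA barcode read ratio; higher means stronger binding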
T2 chain: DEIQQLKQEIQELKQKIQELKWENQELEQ

[3] = biological target: T3, P7A; assay: two-hybrid library CCNG1;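 also: natural log of median RNA to DNA barcode read ratio; higher means stronger binding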
T3 chain: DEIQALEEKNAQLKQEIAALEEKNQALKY

[4] = biological target: T4, 4H906-bN; assay: two-hybrid library CCNG1;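 also: natural log of median RNA to DNA barcode read ratio; higher means stronger binding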
T4 chain: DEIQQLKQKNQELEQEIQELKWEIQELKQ

[5] = biological target: T5, 4H850-bN; assay: two-hybrid library CCNG1;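 also: natural log of median RNA to DNA barcode read ratio; higher means stronger binding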
T5 chain: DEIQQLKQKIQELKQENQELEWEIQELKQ

[6] = biological target: T6, 4H570-bN; assay: two-hybrid library CCNG1;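 also: natural log of median RNA to DNA barcode read ratio; higher means stronger binding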
T6 chain: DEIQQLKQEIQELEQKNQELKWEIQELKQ

[7] = biological target: T7, 4H584-bA; assay: two-hybrid library CCNG1
T7 chain: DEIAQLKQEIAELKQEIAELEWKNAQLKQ

[8] = biological target: T8, 4H3817-bA; assay: two-hybrid library CCNG1
T8 chain: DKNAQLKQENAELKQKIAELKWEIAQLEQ

[9] = biological target: T9, 4H570-bA; assay: two-hybrid library CCNG1
T9 chain: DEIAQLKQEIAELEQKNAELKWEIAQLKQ

[10] = biological target: T10, 4H3414-bA; assay: two-hybrid library CCNG1
T10 chain: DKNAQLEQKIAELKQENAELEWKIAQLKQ

[11] = biological target: T11, 4H906-bA; assay: two-hybrid library CCNG1
T11 chain: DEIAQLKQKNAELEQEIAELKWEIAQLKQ

[12] = biological target: T12, 4H3974-bA; assay: two-hybrid library CCNG1
T12 chain: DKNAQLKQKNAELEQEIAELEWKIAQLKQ

[13] = biological target: T13, 4H619-bA; assay: two-hybrid library CCNG1
T13 chain: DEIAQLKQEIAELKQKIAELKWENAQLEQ

[14] = biological target: T14, 4H3638-bA; assay: two-hybrid library CCNG1
T14 chain: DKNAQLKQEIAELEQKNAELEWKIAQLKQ

[15] = biological target: T15, 4H3631-bA; assay: two-hybrid library CCNG1
T15 chain: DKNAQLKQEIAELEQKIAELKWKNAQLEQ

[16] = biological target: T16, 4H850-bA; assay: two-hybrid library CCNG1
T16 chain: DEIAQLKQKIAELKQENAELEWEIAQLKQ

[17] = biological target: T17, 4H3705-AA; assay: two-hybrid library CCmax; details: mean of both orientations
T17 chain: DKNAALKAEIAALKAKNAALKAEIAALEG

[18] = biological target: T18, 4H486-AA; assay: two-hybrid library CCmax; details: mean of both orientations
T18 chain: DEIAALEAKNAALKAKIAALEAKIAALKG

[19] = biological target: T19, P3-AA; assay: two-hybrid library CCmax
T19 chain: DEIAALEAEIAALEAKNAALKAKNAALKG

[20] = biological target: T20, 4H355-AA; assay: two-hybrid library CCmax; details: mean of both orientations
T20 chain: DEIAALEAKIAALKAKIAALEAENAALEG

[21] = biological target: T21, 4H895-AA; assay: two-hybrid library CCmax; details: mean of both orientations
T21 chain: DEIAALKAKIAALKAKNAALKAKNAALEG

[22] = biological target: T22, 4H465-AA; assay: two-hybrid library CCmax; details: mean of both orientations
T22 chain: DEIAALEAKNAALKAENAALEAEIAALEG

[23] = biological target: T23, 4H_APH; assay: two-hybrid library CCmax; details: mean of both orientations
T23 chain: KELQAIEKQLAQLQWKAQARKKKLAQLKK

[24] = biological target: T24, 4H_BCR; assay: two-hybrid library CCmax; details: mean of both orientations
T24 chain: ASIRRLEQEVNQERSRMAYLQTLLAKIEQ

[25] = biological target: 4H_GCN4; assay: two-hybrid library CCmax
[26] = biological target: GCN2_T; assay: two-hybrid library CCmax
[27] = biological target: T25, 4H58-AA; assay: two-hybrid library CCmax; details: mean of both orientations
T25 chain: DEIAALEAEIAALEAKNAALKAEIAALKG

[28] = biological target: T26, 4H3651-AA; assay: two-hybrid library CCmax; details: mean of both orientations
T26 chain: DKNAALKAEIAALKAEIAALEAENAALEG

[29] = biological target: T27, 4H3782-AA; assay: two-hybrid library CCmax; details: mean of both orientations
T27 chain: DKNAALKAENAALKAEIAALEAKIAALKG

[30] = biological target: T28, 4H535-AA; assay: two-hybrid library CCmax; details: mean of both orientations
T28 chain: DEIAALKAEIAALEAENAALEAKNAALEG

[31] = biological target: T29, 4H3365-AA; assay: two-hybrid library CCmax
T29 chain: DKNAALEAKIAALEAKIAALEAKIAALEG

4H_GCN4, sequence (chain, as listed by the source): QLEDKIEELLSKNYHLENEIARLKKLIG

interaction score [1]: 0.131
interaction score [2]: -1.3
interaction score [3]: -1.87
interaction score [4]: -1.16
interaction score [5]: 1.82
interaction score [6]: 0.618
Binder: DEIQQLKQEIQELEQKNQELKWEIQELKQ [4H570-bN]

interaction score [7]: -0.456
interaction score [8]: 0.381
interaction score [9]: 0.386
interaction score [10]: 0.915
interaction score [11]: -0.43
interaction score [12]: -0.77
interaction score [13]: -1.25
interaction score [14]: 1.02
interaction score [15]: 0.00557
interaction score [16]: -0.866
Binder: DKNAQLEQKIAELKQENAELEWKIAQLKQ [4H3414-bA]

interaction score [17]: -1.25
interaction score [18]: -1.2
interaction score [19]: -2.3
interaction score [20]: -0.823
interaction score [21]: -1.35
interaction score [22]: -1.05
interaction score [23]: -1.21
interaction score [24]: -1.47
interaction score [25]: -1.72
interaction score [26]: -1.79
interaction score [27]: -1.67
interaction score [28]: -0.441
interaction score [29]: -1.46
interaction score [30]: -1.33
interaction score [31]: 1.76
Binder: DKNAALEAKIAALEAKIAALEAKIAALEG [4H3365-AA]
